From publication PMC7022630 (Biomolecules, 2020)

Molecular target: the molecule itself
Assay: SEC-MALS; Superdex 200 10/300 GL; 20 mM Tris-HCl pH 7.5, 150 mM sodium chloride, 0.5 mM TCEP; 100 μL of monomer and dimer fractions of NDRG3 ΔNC at 2.0 mg/mL injected separately, 0.4 mL/min

B1: truncated human NDRG3 (residues 29–320, NDRG3 ΔNC) (domain or fragment)
chain: not shown
notes: N-Myc downstream-regulated gene 3 protein (NDRG3), human, 375 amino acids, residues 29-320; Elutes as monomer and dimer fractions; mainly monomer; No removal of the His tag is described; also called NDRG3 ΔNC WT; NDRG3 ΔNC wild type; source: E. coli BLR(DE3), purified (Ni-chelating, Q HP, Superdex 200); for the analytical SEC loaded after the Ni-chelating column
stoichiometry N: 2
